The source of these data is ChEMBL document CHEMBL1147236, “Semiplenamides A-G, fatty acid amides from a Papua New Guinea collection of the marine cyanobacterium Lyngbya semiplena” (J Nat Prod, 2003).

Substrate in this series: CCCCC/C=C\C/C=C\C/C=C\C/C=C\CCCC(=O)NCCO
The conditions noted are these: Mus musculus; N18TG2.

Description: Activity at FAAH in mouse N18TG2 cell membranes

B1: Fatty-acid amide hydrolase 1 (Mus musculus), O08914 (protein)
chain: MVLSEVWTALSGLSGVCLACSLLSAAVVLRWTRSQTARGAVTRARQKQRAGLETMDKAVQRFRLQNPDLDSEALLALPLLQLVQKLQSGELSPEAVLFTYLGKAWEVNKGTNCVTSYLTDCETQLSQAPRQGLLYGVPVSLKECFSYKGHASTLGLSLNEGVTSESDCVVVQVLKLQGAVPFVHTNVPQSMLSYDCSNPLFGQTMNPWKPSKSPGGSSGGEGALIGSGGSPLGLGTDIGGSIRFPSAFCGICGLKPTGNRLSKSGLKSCVYGQTAVQLSVGPMARDVDSLALCMKALLCEDLFRLDSTIPPLPFREEIYRSSRPLRVGYYETDNYTMPTPAMRRAVMETKQSLEAAGHTLVPFLPNNIPYALEVLSAGGLFSDGGCSFLQNFKGDFVDPCLGDLVLVLKLPRWFKKLLSFLLKPLFPRLAAFLNSMCPRSAEKLWELQHEIEMYRQSVIAQWKAMNLDVVLTPMLGPALDLNTPGRATGAISYTVLYNCLDFPAGVVPVTTVTAEDDAQMEHYKGYFGDMWDNILKKGMKKGIGLPVAVQCVALPWQEELCLRFMREVERLMTPEKRPS
Turning to B1, the Km (in general, the substrate concentration at which the rate is half of its maximum) turned out to be 15 µM.
